expression_or_secretion data for two proteins are collected here from PMC9107513.

Data set [1] can be described thus: western blot, endogenous SERCA3, C2C12 myotubes ± MG-132. Conditions: glycan lost; control: vector / control siRNA. On the technique in general: In western blotting, separated proteins are transferred to a membrane and probed.
Data set [2] is described as follows: western blot, FLAG-tagged wild-type SERCA3 in C2C12. Particulars: glycan lost; control: vector / control siRNA.

B1: SERCA3: siRNA-mediated knockdown of OGT (protein)
parent chain: MEEAHLLSAADVLRRFSVTAEGGLSLEQVTDARERYGPNELPTEEGKSLWELVVEQFEDLLVRILLLAALVSFVLAWFEEGEETTTAFVEPLVIMLILVANAIVGVWQERNAESAIEALKEYEPEMGKVIRSDRKGVQRIRARDIVPGDIVEVAVGDKVPADLRLIEIKSTTLRVDQSILTGESVSVTKHTDAIPDPRAVNQDKKNMLFSGTNIASGKALGVAVATGLQTELGKIRSQMAAVEPERTPLQRKLDEFGRQLSHAISVICVAVWVINIGHFADPAHGGSWLRGAVYYFKIAVALAVAAIPEGLPAVITTCLALGTRRMARKNAIVRSLPSVETLGCTSVICSDKTGTLTTNQMSVCRMFVVAEAEAGTCRLHEFTISGTTYTPEGEVRQGEQPVRCGQFDGLVELATICALCNDSALDYNEAKGVYEKVGEATETALTCLVEKMNVFDTDLKGLSRVERAGACNSVIKQLMRKEFTLEFSRDRKSMSVYCTPTRADPKVQGSKMFVKGAPESVIERCSSVRVGSRTAPLSTTSREHILAKIRDWGSGSDTLRCLALATRDTPPRKEDMHLDDCSRFVQYETDLTFVGCVGMLDPPRPEVAACITRCSRAGIRVVMITGDNKGTAVAICRRLGIFGDTEDVLGKAYTGREFDDLSPEQQRQACRTARCFARVEPAHKSRIVENLQSFNEITAMTGDGVNDAPALKKAEIGIAMGSGTAVAKSAAEMVLSDDNFASIVAAVEEGRAIYNNMKQFIRYLISSNVGEVVCIFLTAILGLPEALIPVQLLWVNLVTDGLPATALGFNPPDLDIMEKPPRNPREALISGWLFFRYLAIGVYVGLATVAAATWWFLYDTEGPQVTFYQLRNFLKCSEDNPLFAGIDCKVFESRFPTTMALSVLVTIEMCNALNSVSENQSLLRMPPWLNPWLLGAVVMSMALHFLILLVPPLPLIFQVTPLSGRQWGVVLQMSLPVILLDEALKYLSRNHMDEKKDLK
Regarding B1, the expression_or_secretion result in data set [1] was “decreases”.

B2: human SERCA3: OGT knockdown (protein)
parent chain: MEAAHLLPAADVLRHFSVTAEGGLSPAQVTGARERYGPNELPSEEGKSLWELVLEQFEDLLVRILLLAALVSFVLAWFEEGEETTTAFVEPLVIMLILVANAIVGVWQERNAESAIEALKEYEPEMGKVIRSDRKGVQRIRARDIVPGDIVEVAVGDKVPADLRLIEIKSTTLRVDQSILTGESVSVTKHTEAIPDPRAVNQDKKNMLFSGTNITSGKAVGVAVATGLHTELGKIRSQMAAVEPERTPLQRKLDEFGRQLSHAISVICVAVWVINIGHFADPAHGGSWLRGAVYYFKIAVALAVAAIPEGLPAVITTCLALGTRRMARKNAIVRSLPSVETLGCTSVICSDKTGTLTTNQMSVCRMFVVAEADAGSCLLHEFTISGTTYTPEGEVRQGDQPVRCGQFDGLVELATICALCNDSALDYNEAKGVYEKVGEATETALTCLVEKMNVFDTDLQALSRVERAGACNTVIKQLMRKEFTLEFSRDRKSMSVYCTPTRPHPTGQGSKMFVKGAPESVIERCSSVRVGSRTAPLTPTSREQILAKIRDWGSGSDTLRCLALATRDAPPRKEDMELDDCSKFVQYETDLTFVGCVGMLDPPRPEVAACITRCYQAGIRVVMITGDNKGTAVAICRRLGIFGDTEDVAGKAYTGREFDDLSPEQQRQACRTARCFARVEPAHKSRIVENLQSFNEITAMTGDGVNDAPALKKAEIGIAMGSGTAVAKSAAEMVLSDDNFASIVAAVEEGRAIYSNMKQFIRYLISSNVGEVVCIFLTAILGLPEALIPVQLLWVNLVTDGLPATALGFNPPDLDIMEKLPRSPREALISGWLFFRYLAIGVYVGLATVAAATWWFVYDAEGPHINFYQLRNFLKCSEDNPLFAGIDCEVFESRFPTTMALSVLVTIEMCNALNSVSENQSLLRMPPWMNPWLLVAVAMSMALHFLILLVPPLPLIFQVTPLSGRQWVVVLQISLPVILLDEALKYLSRNHMHEEMSQK
Take B2: the expression_or_secretion entry in data set [2] is recorded as “decreases”.
